This experiment deals with T1, SARS-CoV-2 spike stem helix peptide (residues 1146-1159), displayed on yeast (SARS-CoV-2).
T1 chain: DSFKEELDKYFKNH
The experiment in a line: flow cytometry on cells. Conditions: partners not purified. A general note: A flow cytometer gives signals particle by particle.

B1: S2P6 in single-chain variable fragment (scFv) format (scFv, V domains shown)
VH: EVQLVQSGAEVKKPGASVKVSCKASGYTFTSQYMHWVRQAPGQGLEWIGIINPSGVHTSYAQKFQGRVTLTRDTSTSTLYMELSSLRSEDTAVYYCARGSPKGAFDYWGQGTLVTVSS
VL: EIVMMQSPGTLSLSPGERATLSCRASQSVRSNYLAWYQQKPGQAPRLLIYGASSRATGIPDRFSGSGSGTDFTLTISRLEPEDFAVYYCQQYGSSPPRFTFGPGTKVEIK
notes: not shown: HA, C-terminal, kept
Consider B1, for which the binding result is reported as “binds”.

Source of the values: doi:10.1101/2024.06.06.597810 (bioRxiv, 2024).
